To fix the notation:
B1: TPR 5TU (parent)
chain: GGAUCUUCUCGAUCUAACAAAAAAGACAAAUCUGCCACAAAGCUUGAGAGCAUCUUCGGAUGCAGAGGCGGCAGCCUUCGGUGGCGCGAUAGCGCCAACGUUCUCAACUAUGACACGCAAAACGCGUGCUCCGUUGAAUGGAGUUUAUCAUG

The values that follow come from the RNAGym collection of RNA variant scans (doi:10.1073/pnas.2313332121).

Fewer inactive variants are shown than the library holds.

The variants in the data set derive from B1. Put plainly: polymerase ribozyme fitness, log enrichment relative to wild type (log ratio); higher = more active; in vitro selection for triplet polymerase activity. In outline:
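PCR was used to build mutant libraries for each subunit of a heterodimeric triplet polymerase ribozyme, which were then transcribed. A single in vitro selection round, in triplicate, used a frozen incubation at −7 °C and recovered extended constructs by gel excision, streptavidin beads and RT-PCR. Fitness is the logarithm of genotype enrichment relative to wild-type enrichment, averaged over replicates with inverse-variance weights. The logarithm is base 2, and after Illumina sequencing only genotypes with ≥10 input reads and ≥1 read per output were kept.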
Regarding GGAUCUUCUCGAUCUAACAAAAAAGACAAAUCUGCCACAAAGCUUGAGAGCAUCUUCGGAUGCAGAGGCGGCAGCCUUCGGUGGCGCGAUAUCGCCAACGUUCUCAACUAUGACACGCAAAACGCGUGCUCCGUUGACUGGAGUUUAUCAUG, the “polymerase ribozyme fitness (log ratio)” value was -3.95.
As for GGAUCUUCUCGAUCUAACAAAAAAGACAAAUCUGCCACAAAGCUUGAGAGCAUCUUCGGAUGCAGAGGCGGCAGCCUUCGGUGGCGCGAUACCGCCAACGGUCUCAACUAUGACACGCAAAACGCGUGCUCCGUUGAAUGGAGUUUAUCAUG, the “polymerase ribozyme fitness (log ratio)” value was -0.874.
As for GGAUCUUCUCGAUCUAACAAAAAAGACAAAUCUGCCACAAAGCUUGAGAGCAUCUUCGGAUGCAGAGGCGGCAGCCUUCGGUGGCGCGAUAUAGCCAACGUUCUCAACUAUGACACGCAAAACGCGUGCUCCUUUGAAUAGAGUUUAUCAUG, the “polymerase ribozyme fitness (log ratio)” value is no more than -4.2.
Under GGAUCUUCUCGAUCUAACAAAAAAGACAAAUCUGCCACAAAGCUUGAGAGCAUCUUCGGAUGCAGAGGCGGCAGCCUUCGGUGGCGCGAUAUCGCCAACGUUCUCCACUAUGACACGCAAAACGCGUGCUCCGUUGAAUGGAGUUUAUCAUG stands -0.0112.
For GGAUCUUCUCGAUCUAACAAAAAAGACAAAUCUGCCACAAAGCUUGAGAGCAUCUUCGGAUGCAGAGGCGGCAGCCUUCGGUGGCGCGAUAUCGCCAACGUUCUCGACUAUGACACGCAAAACGCGUGCUCCGUUGAAUGGAGUUUAUCAUG, the “polymerase ribozyme fitness (log ratio)” value was -0.318.
On to GGAUCUUCUCGAUCUAACAAAAAAGACAAAUCUGCCACAAAGCUUGAGAGCAUCUUCGGAUGCAGAGGCGGCAGCCUUCGGUGGCGCGAUACCGCCAACGUUCUCAACUAUGACACGCAAAACGCGUGCUCCGUUGAAAGGAGUUUAUCAUG, for which the “polymerase ribozyme fitness (log ratio)” value is -4.2.
Under GGAUCUUCUCGAUCUAACAAAAAAGACAAAUCUGCCACAAAGCUUGAGAGCAUCUUCGGAUGCAGAGGCGGCAGCCUUCGGUGGCGCGAUAUCGCCAACGUUCUCAACUAUGACACGCAAAACGCGUGCUCCGUUGAAUGGAGUUUAUCAUG stands -0.671; under GGAUCUUCUCGAUCUAACAAAAAAGACAAAUCUGCCACAAAGCUUGAGAGCAUCUUCGGAUGCAGAGGCGGCAGCCUUCGGUGGCGCGAUACCGCCAACGUUCUCAACUAUGACACGCAAAACGCGUGCUCCGGUGAAUGGAGUUUAUCAUG, -1.68.
The value for GGAUCUUCUCGAUCUAACAAAAAAGACAAAUCUGCCACAAAGCUUGAGAGCAUCUUCGGAUGCAGAGGCGGCAGCCUUCGGUGGCGCGAUAUCGCCAACGUUCUCAACUAUGACCCGCUAAACGCGUGCUCCGUUGAAUCGAGUUUAUCAUG was no more than -4.2.
The value for GGAUCUUCUCGAUCUAACAAAAAAGACAAAUCUGCCACAAAGCUUGAGAGCAUCUUCGGAUGCAGAGGCGGCAGCCUUCGGUGGCGCGAUAUCGCCAACGUUCUCAUCUAUGACACGCAAAACGCGUGCUCCGUUGAAUGGAGUUUAUCAUG was -3.2.
For GGAUCUUCUCGAUCUAACAAAAAAGACAAAUCUGCCACAAAGCUUGAGAGCAUCUUCGGAUGCAGAGGCGGCAGCCUUCGGUGGCGCGAUAUCGCCAACGUUCUCAACUAUGCCACGCAAAACGCGUGCUCCGUUGAAUGGAGUUUAUCAUG, the “polymerase ribozyme fitness (log ratio)” value is -2.78.
The value for GGAUCUUCUCGAUCUAACAAAAAAGACAAAUCUGCCACAAAGCUUGAGAGCAUCUUCGGAUGCAGAGGCGGCAGCCUUCGGUGGCGCGAUACCGCCAACGUUCUCAACUACGACACGCAAAACGCGUGCUCCGUUGAAUGGAGUUUAUCAUG was -3.45.
The value for GGAUCUUCUCGAUCUAACAAAAAAGACAAAUCUGCCACAAAGCUUGAGAGCAUCUUCGGAUGCAGAGGCGGCAGCCUUCGGUGGCGCGAUAUCGCCCACGUUCUCAACUAUGACACGCAAAACGCGUGCUCCGUUGAAUGGAGUUUAUCAUG was -0.00996.
Take GGAUCUUCUCGAUCUAACAAAAAAGACAAAUCUGCCACAAAGCUUGAGAGCAUCUUCGGAUGCAGAGGCGGCAGCCUUCGGUGGCGCGAUACCGCCAACGUUCUCAACUAUGACACGCAAAACGCGUGCUCCGUUGAAUGGAGUUAAUCAUG: the “polymerase ribozyme fitness (log ratio)” value is -0.323.
Under GGAUCUUCUCGAUCUAACAAAAAAGACAAAUCUGCCACAAAGCUUGAGAGCAUCUUCGGAUGCAGAGGCGGCAGCCUUCGGUGGCGCGAUACCGCCAACGUUCCCAACUAUGACACGCAAAACGCGUGCUCCGUUGAAUGGAGUUUAUCAUG stands -1.35.
The value for GGAUCUUCUCGAUCUAACAAAAAAGACAAAUCUGCCACAAAGCUUGAGAGCAUCUUCGGAUGCAGAGGCGGCAGCCUUCGGUGGCGCGAUACCGCCAACGUUCGCAACUAUGACACGCAAAACGCGUGCUCCGUUGAAUGGAGUUUAUCAUG was -1.85; that for GGAUCUUCUCGAUCUAACAAAAAAGACAAAUCUGCCACAAAGCUUGAGAGCAUCUUCGGAUGCAGAGGCGGCAGCCUUCGGUGGCGCGAUACCGCCAACGUUCUCAACUAUGACACGCAAAACGCGUGCUCCGUGGAAUGGUGUUUAUCAUG was -4.1; that for GGAUCUUCUCGAUCUAACAAAAAAGACAAAUCUGCCACAAAGCUUGAGAGCAUCUUCGGAUGCAGAGGCGGCAGCCUUCGGUGGCGCGAUAUCGCCAACGUUCUCAACUAUGACACGCAAAACGCGUGCUCCGUUGGAUGGAGUCUAUCAUG was -1.11.
The value for GGAUCUUCUCGAUCUAACAAAAAAGACAAAUCUGCCACAAAGCUUGAGAGCAUCUUCGGAUGCAGAGGCGGCAGCCUUCGGUGGCGCGAUACCGCCAACGGUCUCAACUAUGACACCCAAAACGCGUGCUCCGUUGAAUGGAGUUUAUCAUG was -1.52.
